Experimental findings from patent US20200297818A1 (ZEALAND PHARMA A S, published 2020) are described below.

Substitutions are numbered along the chain they refer to. *1 amine or outer side, *2 acyl side, *3 side chain or, on linkers, in order; H or OH if unused. Side-chain parts run from the residue outwards. [ ]: non-standard residue; d: D form. The star is where a group is joined. C20 diacid = O=C(O)CCCCCCCCCCCCCCCCCCC(=O)*; C18 diacid = O=C(O)CCCCCCCCCCCCCCCCC(=O)*; γGlu = O=C(O)[C@H](CCC(=O)[*:2])N[*:1]; AEEA = NCCOCCOCC(=O)O; Aib = CC(C)(N)C(=O)O

The target in test [1] is T1, human GLP-2 receptor (hGLP2-R) (human, UniProt O95838 1-553).
T1 sequence (looked up): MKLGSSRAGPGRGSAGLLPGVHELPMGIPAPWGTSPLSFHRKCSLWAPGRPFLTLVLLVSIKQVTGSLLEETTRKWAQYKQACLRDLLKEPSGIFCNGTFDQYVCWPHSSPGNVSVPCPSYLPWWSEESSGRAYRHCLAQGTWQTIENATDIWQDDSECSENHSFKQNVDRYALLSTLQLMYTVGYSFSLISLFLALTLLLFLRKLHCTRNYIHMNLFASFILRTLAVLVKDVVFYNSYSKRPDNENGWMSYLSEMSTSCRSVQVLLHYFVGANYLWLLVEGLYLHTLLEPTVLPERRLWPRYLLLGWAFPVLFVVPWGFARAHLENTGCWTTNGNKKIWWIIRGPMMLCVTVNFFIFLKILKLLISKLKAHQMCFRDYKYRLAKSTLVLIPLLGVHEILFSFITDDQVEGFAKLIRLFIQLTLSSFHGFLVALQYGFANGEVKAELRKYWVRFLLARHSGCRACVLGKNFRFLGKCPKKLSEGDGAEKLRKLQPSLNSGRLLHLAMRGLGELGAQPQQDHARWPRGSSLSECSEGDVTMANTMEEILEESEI
Kind of test: cell-based or functional assay.

Test [2] concerns the target human glucagon-like peptide 1 receptor (GLP-1 R) (human, UniProt P43220 24-463). The experiment in a line: cell-based or functional assay.

With H-H[Aib]EGTFTSELATILDK([Lys-Glu-Lys-γGlu-C20 diacid])QAARDFIAWLIQHKITD-OH [Compound 51], in test [1], the “EC50 GLP-2 (nM); cAMP response” value came to 0.18 nM. Besides, in test [2], the “EC50 GLP-1 (nM); cAMP response” value was 0.02 nM. The matching figures for H-H[Aib]EGTFSSELATILDK([AEEA-Lys-Glu-Lys-γGlu-C18 diacid])QAARDFIAWLIEHKITD-OH [Compound 49]: 0.044 nM and 0.27 nM. For the molecule H-H[Aib]EGTFSSELATILDK([AEEA-Lys-Glu-Lys-γGlu-C18 diacid])QAARDFIAWLIQHKITD-OH [Compound 47], the “EC50 GLP-2 (nM); cAMP response” value in test [1] worked out at 0.048 nM. In addition, the “EC50 GLP-1 (nM); cAMP response” value in test [2] came out at 0.44 nM.

B1: Compound 1 (peptide)
peptide: HXEGTFSSELATILDXEAARDFIAWLIEHKITD
HELM: PEPTIDE1{H.[Aib].E.G.T.F.S.S.E.L.A.T.I.L.D.K.E.A.A.R.D.F.I.A.W.L.I.E.H.K.I.T.D}|PEPTIDE2{[O=C(O)CCCCCCCCCCCCCCCCC(=O)[*:2]].[gGlu]}$PEPTIDE1,PEPTIDE2,16:R3-2:R2$$$V2.0
SMILES: CC[C@H](C)[C@H](NC(=O)[C@H](Cc1ccccc1)NC(=O)[C@H](CC(=O)O)NC(=O)[C@H](CCCNC(=N)N)NC(=O)[C@H](C)NC(=O)[C@H](C)NC(=O)[C@H](CCC(=O)O)NC(=O)[C@H](CCCCNC(=O)CC[C@H](NC(=O)CCCCCCCCCCCCCCCCC(=O)O)C(=O)O)NC(=O)[C@H](CC(=O)O)NC(=O)[C@H](CC(C)C)NC(=O)[C@@H](NC(=O)[C@@H](NC(=O)[C@H](C)NC(=O)[C@H](CC(C)C)NC(=O)[C@H](CCC(=O)O)NC(=O)[C@H](CO)NC(=O)[C@H](CO)NC(=O)[C@H](Cc1ccccc1)NC(=O)[C@@H](NC(=O)CNC(=O)[C@H](CCC(=O)O)NC(=O)C(C)(C)NC(=O)[C@@H](N)Cc1c[nH]cn1)[C@@H](C)O)[C@@H](C)O)[C@@H](C)CC)C(=O)N[C@@H](C)C(=O)N[C@@H](Cc1c[nH]c2ccccc12)C(=O)N[C@@H](CC(C)C)C(=O)N[C@H](C(=O)N[C@@H](CCC(=O)O)C(=O)N[C@@H](Cc1c[nH]cn1)C(=O)N[C@@H](CCCCN)C(=O)N[C@H](C(=O)N[C@H](C(=O)N[C@@H](CC(=O)O)C(=O)O)[C@@H](C)O)[C@@H](C)CC)[C@@H](C)CC
With B1, the “EC50 GLP-2 (nM); cAMP response” value in test [1] stood at 0.35 nM. In test [2], the “EC50 GLP-1 (nM); cAMP response” value is 0.63 nM.

B2: Compound 2 (peptide)
peptide: B1 peptide with T5S, S7T
HELM: PEPTIDE1{H.[Aib].E.G.S.F.T.S.E.L.A.T.I.L.D.K.E.A.A.R.D.F.I.A.W.L.I.E.H.K.I.T.D}|PEPTIDE2{[O=C(O)CCCCCCCCCCCCCCCCC(=O)[*:2]].[gGlu]}$PEPTIDE1,PEPTIDE2,16:R3-2:R2$$$V2.0
SMILES: CC[C@H](C)[C@H](NC(=O)[C@H](Cc1ccccc1)NC(=O)[C@H](CC(=O)O)NC(=O)[C@H](CCCNC(=N)N)NC(=O)[C@H](C)NC(=O)[C@H](C)NC(=O)[C@H](CCC(=O)O)NC(=O)[C@H](CCCCNC(=O)CC[C@H](NC(=O)CCCCCCCCCCCCCCCCC(=O)O)C(=O)O)NC(=O)[C@H](CC(=O)O)NC(=O)[C@H](CC(C)C)NC(=O)[C@@H](NC(=O)[C@@H](NC(=O)[C@H](C)NC(=O)[C@H](CC(C)C)NC(=O)[C@H](CCC(=O)O)NC(=O)[C@H](CO)NC(=O)[C@@H](NC(=O)[C@H](Cc1ccccc1)NC(=O)[C@H](CO)NC(=O)CNC(=O)[C@H](CCC(=O)O)NC(=O)C(C)(C)NC(=O)[C@@H](N)Cc1c[nH]cn1)[C@@H](C)O)[C@@H](C)O)[C@@H](C)CC)C(=O)N[C@@H](C)C(=O)N[C@@H](Cc1c[nH]c2ccccc12)C(=O)N[C@@H](CC(C)C)C(=O)N[C@H](C(=O)N[C@@H](CCC(=O)O)C(=O)N[C@@H](Cc1c[nH]cn1)C(=O)N[C@@H](CCCCN)C(=O)N[C@H](C(=O)N[C@H](C(=O)N[C@@H](CC(=O)O)C(=O)O)[C@@H](C)O)[C@@H](C)CC)[C@@H](C)CC
For B2, the “EC50 GLP-2 (nM); cAMP response” value in test [1] is 0.25 nM. Also, in test [2], the “EC50 GLP-1 (nM); cAMP response” value came out at 0.13 nM. The matching figures for H-H[Aib]EGSFTSELATILEGK([AEEA-Lys-Glu-Lys-γGlu-C20 diacid])AARDFIAWLIEHKITD-OH [Compound 61]: 0.2 nM and 0.13 nM. The matching figures for H-H[Aib]EGSFTSELATILDAK([AEEA-Lys-Glu-Lys-γGlu-C20 diacid])AARDFIAWLIEHKITD-OH [Compound 62]: 0.15 nM and 0.27 nM. The matching figures for H-H[Aib]EGSFTSELATILDK([AEEA-Lys-Glu-Lys-γGlu-C20 diacid])QAARDFIAWLIEHKITD-OH [Compound 57]: 0.083 nM and 0.093 nM. For the molecule H-H[Aib]EGSFTSEK([AEEA-Lys-Glu-Lys-γGlu-C20 diacid])ATILDEQAARDFIAWLIEHKITD-OH [Compound 53], the “EC50 GLP-2 (nM); cAMP response” value in test [1] came out at 0.24 nM. In test [2], the “EC50 GLP-1 (nM); cAMP response” value is 0.076 nM. For the molecule H-H[Aib]EGSFTSELATILDK([AEEA-Lys-Glu-Lys-γGlu-C20 diacid])QAARDFIAWLIAHKITD-OH [Compound 58], the “EC50 GLP-2 (nM); cAMP response” value in test [1] came out at 0.09 nM. Further, in test [2], the “EC50 GLP-1 (nM); cAMP response” value was 0.089 nM. With HGDGSFSDEMNTILDNLAARDFINWLIQTKITD [Teduglutide], the “EC50 GLP-1 (nM); cAMP response” value in test [2] is 39 nM.

H-H[Aib]EGTFTSEK([AEEA-Lys-Glu-Lys-γGlu-C20 diacid])ATILDEQAARDFIAWLIEHKITD-OH [Compound 54]: in test [1], the “EC50 GLP-2 (nM); cAMP response” value was 0.99 nM. For the same molecule, the “EC50 GLP-1 (nM); cAMP response” value in test [2] was 0.034 nM. As for H-H[Aib]EGSFTSEK([AEEA-AEEA-Lys-Glu-Lys-γGlu-C20 diacid])ATILDEQAARDFIAWLIEHKITD-OH [Compound 55], in test [1], the “EC50 GLP-2 (nM); cAMP response” value came to 0.78 nM. The “EC50 GLP-1 (nM); cAMP response” value in test [2] is 0.11 nM. Consider H-H[Aib]EGSFTSELATILDK([AEEA-AEEA-Lys-Glu-Lys-γGlu-C20 diacid])QAARDFIAWLIEHKITD-OH [Compound 60], for which, in test [1], the “EC50 GLP-2 (nM); cAMP response” value is 0.074 nM. Further, the “EC50 GLP-1 (nM); cAMP response” value in test [2] is 0.097 nM. The matching figures for H-H[Aib]EGSFTSELATILDK([AEEA-Lys-Glu-Lys-γGlu-C20 diacid])KAARDFIAWLIEHKITD-OH [Compound 59]: 0.11 nM and 0.088 nM. In the case of H-H[Aib]EGTFTSELATILDK([AEEA-Lys-Glu-Lys-γGlu-C20 diacid])QAARDFIAWLIEHKITD-OH [Compound 56], the “EC50 GLP-2 (nM); cAMP response” value in test [1] worked out at 0.076 nM. Besides, the “EC50 GLP-1 (nM); cAMP response” value in test [2] worked out at 0.033 nM. Turning to H-H[Aib]EGTFTSELATILDK([AEEA-Lys-Glu-Lys-γGlu-C20 diacid])QAARDFIAWLIQHKITD-OH [Compound 52], the “EC50 GLP-2 (nM); cAMP response” value in test [1] was 0.075 nM. The “EC50 GLP-1 (nM); cAMP response” value in test [2] was determined as 0.02 nM. As for H-H[Aib]EGTFSSELATILDK([AEEA-Lys-Glu-Lys-γGlu-C20 diacid])QAARDFIAWLIEHKITD-OH [Compound 50], the “EC50 GLP-2 (nM); cAMP response” value in test [1] stood at 0.056 nM. Also, the “EC50 GLP-1 (nM); cAMP response” value in test [2] is 0.31 nM. The matching figures for H-H[Aib]EGTFSSELATILDK([AEEA-Lys-Glu-Lys-γGlu-C20 diacid])QAARDFIAWLIQHKITD-OH [Compound 48]: 0.054 nM and 0.47 nM.
